Measurements reported in patent US20240409660A1.

Assays:
[1] = biological target: human PD-L1 (human) (UniProt Q9NZQ7); assay: flow cytometry, transfected cells
[2] = biological target: human CD28, full-length, expressed on Expi293 cells (human) (UniProt P10747); assay: flow cytometry, transfected cells
[3] = biological target: human PD-L1, full-length, expressed on Expi293 cells (human) (UniProt Q9NZQ7); assay: flow cytometry, transfected cells
[4] = biological target: human CD28 (human) (UniProt P10747); assay: flow cytometry, transfected cells
[5] = biological target: human CD28, full length, expressed on transfected Expi293 cells (human) (UniProt P10747); assay: flow cytometry, Expi293 cells transfected with human CD28

stacked IgV-Fc: Domain 1 CD80 WT / Domain 2 ICOSL WT (Fc fusion)
MFI [1]: 1230 MFI

stacked IgV-Fc fusion: domain 1 CD80 WT, domain 2 ICOSL WT
MFI [2]: 1230 MFI | MFI [3]: 2660 MFI

CD80 K36G/K37Q/M38I/L40M/F59L/E81V/L85R/K89N/A91T/F92P/K93V/R94L/E99G/T130A/N149S ECD-Fc (Fc fusion)
MFI ratio to WT CD80 (parental ratio) [2]: 0.1

variant ICOSL ECD-Fc T43A, N52H, N57Y, L74Q, D89G, V110D, F172S (Fc fusion)
parental ratio [4]: 0.49

stacked IgV-Fc fusion: domain 1 NKp30 WT, domain 2 ICOSL WT
MFI [2]: 6340 MFI

stacked IgV-Fc fusion: domain 1 ICOSL WT, domain 2 NKp30 WT
MFI [2]: 7920 MFI

stacked IgV-Fc: Domain 1 ICOSL WT / Domain 2 CD80 WT (Fc fusion)
MFI [1]: 3000 MFI

B1: ICOSL F120S/Y152H/N201S variant ECD-Fc fusion (Fc fusion)
chain: DTQEKEVRAMVGSDVELSCACPEGSRFDLNDVYVYWQTSESKTVVTYHIPQNSSLENVDSRYRNRALMSPAGMLRGDFSLRLFNVTPQDEQKFHCLVLSQSLGFQEVLSVEVTLHVAANSSVPVVSAPHSPSQDELTFTCTSINGYPRPNVHWINKTDNSLLDQALQNDTVFLNMRGLYDVVSVLRIARTPSVNIGCCIESVLLQQNLTVGSQTGNDIGERDKITENPVSTGEKNAATAAAEPKSSDKTHTCPPCPAPELLGGPSVFLFPPKPKDTLMISRTPEVTCVVVDVSHEDPEVKFNWYVDGVEVHNAKTKPCEEQYGSTYRCVSVLTVLHQDWLNGKEYKCKVSNKALPAPIEKTISKAKGQPREPQVYTLPPSREEMTKNQVSLTCLVKGFYPSDIAVEWESNGQPENNYKTTPPVLDSDGSFFLYSKLTVDKSRWQQGNVFSCSVMHEALHNHYTQKSLSLSPGK
MFI ratio to parental (WT ICOSL) [5]: 0.89
